US6420345

Key:
[1] = biological target: CDK4/cyclin D1 complex (UniProt P11802); test: cell-based or functional assay
[2] = biological target: CDK2/cyclin E complex (UniProt P24941); test: cell-based or functional assay
[3] = biological target: CDC2/cyclin B complex (UniProt P06493); test: cell-based or functional assay
[4] = biological target: CDK2/cyclin A complex (UniProt P24941); test: cell-based or functional assay
[5] = biological target: CDK4/cyclin D1 complex (UniProt P11802); test: in vitro kinase inhibition assay (32P incorporation into GST-Rb)

CDK4/cyclin D1 complex, sequence (P11802 whole entry, chain 1 of 2): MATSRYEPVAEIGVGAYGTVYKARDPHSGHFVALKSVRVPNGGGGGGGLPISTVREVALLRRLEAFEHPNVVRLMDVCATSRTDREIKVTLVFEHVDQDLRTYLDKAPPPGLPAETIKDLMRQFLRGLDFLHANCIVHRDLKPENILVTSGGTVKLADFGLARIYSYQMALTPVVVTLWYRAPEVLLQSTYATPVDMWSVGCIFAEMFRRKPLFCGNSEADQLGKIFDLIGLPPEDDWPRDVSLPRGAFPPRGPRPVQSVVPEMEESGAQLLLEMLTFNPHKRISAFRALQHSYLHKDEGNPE
CDK4/cyclin D1 complex, sequence (P24385 whole entry, chain 2 of 2, further chain): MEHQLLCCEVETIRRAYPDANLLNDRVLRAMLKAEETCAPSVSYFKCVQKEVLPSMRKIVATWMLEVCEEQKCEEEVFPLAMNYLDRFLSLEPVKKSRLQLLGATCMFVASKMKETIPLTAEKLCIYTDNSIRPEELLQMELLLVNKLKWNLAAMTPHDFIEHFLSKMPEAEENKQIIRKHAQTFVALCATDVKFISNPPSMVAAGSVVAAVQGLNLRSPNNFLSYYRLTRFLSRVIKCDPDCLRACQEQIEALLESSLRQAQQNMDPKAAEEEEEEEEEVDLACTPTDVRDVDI
CDC2/cyclin B complex, sequence (P06493 whole entry, chain 1 of 2): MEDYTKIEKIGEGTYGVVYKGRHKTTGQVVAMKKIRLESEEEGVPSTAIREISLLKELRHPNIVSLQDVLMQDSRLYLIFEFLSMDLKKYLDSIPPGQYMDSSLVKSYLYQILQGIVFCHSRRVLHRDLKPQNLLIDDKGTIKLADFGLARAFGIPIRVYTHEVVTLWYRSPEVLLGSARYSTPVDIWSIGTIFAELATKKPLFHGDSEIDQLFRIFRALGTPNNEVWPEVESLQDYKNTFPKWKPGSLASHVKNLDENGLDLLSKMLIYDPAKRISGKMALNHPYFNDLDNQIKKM
CDC2/cyclin B complex, sequence (P14635 whole entry, chain 2 of 2, further chain): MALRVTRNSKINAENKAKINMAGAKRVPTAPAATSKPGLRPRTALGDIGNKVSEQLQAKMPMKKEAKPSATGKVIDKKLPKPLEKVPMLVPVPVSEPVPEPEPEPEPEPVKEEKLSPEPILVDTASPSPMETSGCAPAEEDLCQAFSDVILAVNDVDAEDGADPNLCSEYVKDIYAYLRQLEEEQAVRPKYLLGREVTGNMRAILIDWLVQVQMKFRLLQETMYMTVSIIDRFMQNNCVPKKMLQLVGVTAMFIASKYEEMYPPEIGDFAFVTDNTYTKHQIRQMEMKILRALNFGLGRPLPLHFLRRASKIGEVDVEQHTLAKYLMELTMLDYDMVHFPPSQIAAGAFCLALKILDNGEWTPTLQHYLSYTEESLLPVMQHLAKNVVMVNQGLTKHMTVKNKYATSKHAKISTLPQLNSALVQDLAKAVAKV

IC50, in vitro kinase assay [1] [nM]	IC50, in vitro kinase assay [2] [nM]	IC50, in vitro kinase assay [3] [nM]	IC50, in vitro kinase assay [4] [nM]	Ki [5] [nM]	Substance
25	30	15	25	23	p27-p16 fusion protein
63		20			human p27 (full length, 6xHis and HA tagged) (from UniProt P46527 1-198)
